Paper PMC9231623 (2022)

Target: T1, SNX5 PX domain (UniProt Q9Y5X3 25-172)
T1 chain: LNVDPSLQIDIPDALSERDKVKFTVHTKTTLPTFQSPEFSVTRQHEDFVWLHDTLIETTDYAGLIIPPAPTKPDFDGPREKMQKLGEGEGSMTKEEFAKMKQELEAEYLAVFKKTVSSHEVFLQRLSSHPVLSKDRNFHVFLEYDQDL
Experiment: ITC

B1: NRP1 peptide (residues 894 to 918 of the cytosolic tail) (peptide)
peptide: not shown
For B1, the Kd was 17.6 µM.
